Literature values in patent US20090069376A1, “VLA-4 Antagonists” (priority 2005, published 2009).

Target: VLA-4 (Homo sapiens, UniProt P13612)
Details: early clinical trials

- receptor occupancy: > 80%
Substance: natalizumab
